Results on one substance are retold here after PMC9851726.

This assay concerns the target human complement C3b (human) (UniProt P01024).
Sequence of UniProt P01024 (P01024 23-667, chain 1 of 2): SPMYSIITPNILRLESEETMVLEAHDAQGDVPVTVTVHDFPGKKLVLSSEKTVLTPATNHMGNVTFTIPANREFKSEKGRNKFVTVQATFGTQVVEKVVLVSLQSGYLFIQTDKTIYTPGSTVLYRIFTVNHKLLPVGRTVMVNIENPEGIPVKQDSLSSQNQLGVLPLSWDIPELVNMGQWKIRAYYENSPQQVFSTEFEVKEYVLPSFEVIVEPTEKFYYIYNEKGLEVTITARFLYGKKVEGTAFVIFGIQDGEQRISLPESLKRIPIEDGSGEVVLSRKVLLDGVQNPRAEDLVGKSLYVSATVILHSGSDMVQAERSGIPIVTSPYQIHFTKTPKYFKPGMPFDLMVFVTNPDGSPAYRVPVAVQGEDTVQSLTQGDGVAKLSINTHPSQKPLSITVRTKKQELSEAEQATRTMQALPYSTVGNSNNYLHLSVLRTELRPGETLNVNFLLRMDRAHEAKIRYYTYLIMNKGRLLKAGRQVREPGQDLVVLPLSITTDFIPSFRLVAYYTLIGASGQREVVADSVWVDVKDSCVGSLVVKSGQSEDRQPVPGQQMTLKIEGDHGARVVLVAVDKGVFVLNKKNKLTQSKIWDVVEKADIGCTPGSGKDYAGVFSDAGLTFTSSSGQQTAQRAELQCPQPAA
Sequence of UniProt P01024 (P01024 749-1663, chain 2 of 2): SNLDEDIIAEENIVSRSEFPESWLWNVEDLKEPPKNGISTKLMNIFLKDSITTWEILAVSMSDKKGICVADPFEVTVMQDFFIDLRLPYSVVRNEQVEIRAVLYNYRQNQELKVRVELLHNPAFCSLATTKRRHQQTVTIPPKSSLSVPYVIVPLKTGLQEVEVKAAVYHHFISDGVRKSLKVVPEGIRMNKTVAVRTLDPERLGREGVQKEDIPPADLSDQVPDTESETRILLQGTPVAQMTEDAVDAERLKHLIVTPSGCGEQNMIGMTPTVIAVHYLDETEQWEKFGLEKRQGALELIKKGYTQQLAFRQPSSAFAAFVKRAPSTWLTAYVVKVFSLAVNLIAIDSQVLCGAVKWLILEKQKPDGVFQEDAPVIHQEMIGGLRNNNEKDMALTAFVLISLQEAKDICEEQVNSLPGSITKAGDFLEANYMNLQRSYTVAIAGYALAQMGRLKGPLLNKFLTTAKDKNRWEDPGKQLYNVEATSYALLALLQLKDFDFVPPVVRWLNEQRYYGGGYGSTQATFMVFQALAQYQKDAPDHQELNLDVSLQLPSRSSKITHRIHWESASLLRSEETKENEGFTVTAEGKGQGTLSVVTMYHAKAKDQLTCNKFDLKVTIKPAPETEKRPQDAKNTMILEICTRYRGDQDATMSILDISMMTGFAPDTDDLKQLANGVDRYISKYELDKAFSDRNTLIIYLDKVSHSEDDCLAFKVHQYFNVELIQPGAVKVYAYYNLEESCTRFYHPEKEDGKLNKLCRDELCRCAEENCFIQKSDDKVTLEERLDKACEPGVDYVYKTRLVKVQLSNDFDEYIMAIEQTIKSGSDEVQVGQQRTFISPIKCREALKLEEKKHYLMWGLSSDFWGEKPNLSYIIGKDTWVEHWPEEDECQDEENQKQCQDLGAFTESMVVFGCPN

The substance “recombinant SARS-CoV-2 ORF8 protein, His-tagged (from UniProt P0DTC8 18-121) (natural protein)” returned an IC50 of inhibition of normal human serum-induced hemolysis of rabbit erythrocytes, ORF8 39 nM to 5000 nM of 2300 nM.
